Consider one sequence from US20230226135A9, “ACETYLCHOLINE MODULATION OF IMMUNE FUNCTION” (BCell Solutions, Inc., priority 2019, published 2023).

The series can be described thus: Toxicity evaluation in CFA/Peptide/MLA study (survival, body weight change, spleen weight). Type of series: in vivo, mice. Here is the method: SUMMARY: A study was conducted to evaluate a potential alpha7 nAChR anti-inflammatory mechanism of the MKR-4 peptide, using the alpha7 nAChR antagonist methyllycaconitine (MLA). After enrollment, animals in Groups 2-4 were sensitized ID at the base of the tail with 0.1 mL FCA on Day 1. On Days 2, 3, 5 & 7 Groups were then dosed intraperitoneally (IP) with either: peptide and MLA in combination (2 mg/kg and 6 mg/kg, respectively); peptide (2 mg/kg) and MLA vehicle (saline) in combination; or peptide vehicle (saline) and MLA vehicle (saline). Animals were dosed once on Study Day 2 (MLA or MLA vehicle), and Days 3, 5 & 7 (Peptide or Peptide vehicle, MLA or MLA vehicle) as described in Table 2 below. Body weights were recorded on Study Days 0 & 8. Mice were euthanized for necropsy on Study Day 8, and serum and whole spleens were collected from all animals and sent to the sponsor for internal FACS analysis. Toxicity and Peptide mechanistic evaluation was based on absolute body weight change, spleen weights and sponsor FACS analysis (not included in report). […]
Statistical Analysis: Data for each animal were entered into Microsoft Excel and means and standard errors for each group were calculated. Test groups were compared to vehicle controls using a one-way analysis of variance (1-way ANOVA) with a Dunnett's post-hoc analysis for measured (parametric) data. […]

Consider FRIMAVLAS [CAP, α7nAChR agonist], for which the “survival to study termination” value (Peptide 2 mg/kg IP Days 3, 5, 7, with or without MLA) is “All mice survived”. Besides, for the setting “Peptide 2 mg/kg IP, with or without MLA 6 mg/kg, CFA mice”, the “group body weight change differences and spleen weight differences” value is listed as “none of the group body weight change differences or spleen weight differences were significant”.
